# B1: Ribosome assembly protein 4 (Saccharomyces cerevisiae), P25382 (parent)
# chain: MSTLIPPPSKKQKKEAQLPREVAIIPKDLPNVSIKFQALDTGDNVGGALRVPGAISEKQLEELLNQLNGTSDDPVPYTFSCTIQGKKASDPVKTIDITDNLYSSLIKPGYNSTEDQITLLYTPRAVFKVKPVTRSSSAIAGHGSTILCSAFAPHTSSRMVTGAGDNTARIWDCDTQTPMHTLKGHYNWVLCVSWSPDGEVIATGSMDNTIRLWDPKSGQCLGDALRGHSKWITSLSWEPIHLVKPGSKPRLASSSKDGTIKIWDTVSRVCQYTMSGHTNSVSCVKWGGQGLLYSGSHDRTVRVWDINSQGRCINILKSHAHWVNHLSLSTDYALRIGAFDHTGKKPSTPEEAQKKALENYEKICKKNGNSEEMMVTASDDYTMFLWNPLKSTKPIARMTGHQKLVNHVAFSPDGRYIVSASFDNSIKLWDGRDGKFISTFRGHVASVYQVAWSSDCRLLVSCSKDTTLKVWDVRTRKLSVDLPGHKDEVYTVDWSVDGKRVCSGGKDKMVRLWTH
# Variants of: B1
# Settings: with mdn1_yeast MDN1, Q12019
# mdn1_yeast MDN1, Q12019, sequence (Q12019 whole entry): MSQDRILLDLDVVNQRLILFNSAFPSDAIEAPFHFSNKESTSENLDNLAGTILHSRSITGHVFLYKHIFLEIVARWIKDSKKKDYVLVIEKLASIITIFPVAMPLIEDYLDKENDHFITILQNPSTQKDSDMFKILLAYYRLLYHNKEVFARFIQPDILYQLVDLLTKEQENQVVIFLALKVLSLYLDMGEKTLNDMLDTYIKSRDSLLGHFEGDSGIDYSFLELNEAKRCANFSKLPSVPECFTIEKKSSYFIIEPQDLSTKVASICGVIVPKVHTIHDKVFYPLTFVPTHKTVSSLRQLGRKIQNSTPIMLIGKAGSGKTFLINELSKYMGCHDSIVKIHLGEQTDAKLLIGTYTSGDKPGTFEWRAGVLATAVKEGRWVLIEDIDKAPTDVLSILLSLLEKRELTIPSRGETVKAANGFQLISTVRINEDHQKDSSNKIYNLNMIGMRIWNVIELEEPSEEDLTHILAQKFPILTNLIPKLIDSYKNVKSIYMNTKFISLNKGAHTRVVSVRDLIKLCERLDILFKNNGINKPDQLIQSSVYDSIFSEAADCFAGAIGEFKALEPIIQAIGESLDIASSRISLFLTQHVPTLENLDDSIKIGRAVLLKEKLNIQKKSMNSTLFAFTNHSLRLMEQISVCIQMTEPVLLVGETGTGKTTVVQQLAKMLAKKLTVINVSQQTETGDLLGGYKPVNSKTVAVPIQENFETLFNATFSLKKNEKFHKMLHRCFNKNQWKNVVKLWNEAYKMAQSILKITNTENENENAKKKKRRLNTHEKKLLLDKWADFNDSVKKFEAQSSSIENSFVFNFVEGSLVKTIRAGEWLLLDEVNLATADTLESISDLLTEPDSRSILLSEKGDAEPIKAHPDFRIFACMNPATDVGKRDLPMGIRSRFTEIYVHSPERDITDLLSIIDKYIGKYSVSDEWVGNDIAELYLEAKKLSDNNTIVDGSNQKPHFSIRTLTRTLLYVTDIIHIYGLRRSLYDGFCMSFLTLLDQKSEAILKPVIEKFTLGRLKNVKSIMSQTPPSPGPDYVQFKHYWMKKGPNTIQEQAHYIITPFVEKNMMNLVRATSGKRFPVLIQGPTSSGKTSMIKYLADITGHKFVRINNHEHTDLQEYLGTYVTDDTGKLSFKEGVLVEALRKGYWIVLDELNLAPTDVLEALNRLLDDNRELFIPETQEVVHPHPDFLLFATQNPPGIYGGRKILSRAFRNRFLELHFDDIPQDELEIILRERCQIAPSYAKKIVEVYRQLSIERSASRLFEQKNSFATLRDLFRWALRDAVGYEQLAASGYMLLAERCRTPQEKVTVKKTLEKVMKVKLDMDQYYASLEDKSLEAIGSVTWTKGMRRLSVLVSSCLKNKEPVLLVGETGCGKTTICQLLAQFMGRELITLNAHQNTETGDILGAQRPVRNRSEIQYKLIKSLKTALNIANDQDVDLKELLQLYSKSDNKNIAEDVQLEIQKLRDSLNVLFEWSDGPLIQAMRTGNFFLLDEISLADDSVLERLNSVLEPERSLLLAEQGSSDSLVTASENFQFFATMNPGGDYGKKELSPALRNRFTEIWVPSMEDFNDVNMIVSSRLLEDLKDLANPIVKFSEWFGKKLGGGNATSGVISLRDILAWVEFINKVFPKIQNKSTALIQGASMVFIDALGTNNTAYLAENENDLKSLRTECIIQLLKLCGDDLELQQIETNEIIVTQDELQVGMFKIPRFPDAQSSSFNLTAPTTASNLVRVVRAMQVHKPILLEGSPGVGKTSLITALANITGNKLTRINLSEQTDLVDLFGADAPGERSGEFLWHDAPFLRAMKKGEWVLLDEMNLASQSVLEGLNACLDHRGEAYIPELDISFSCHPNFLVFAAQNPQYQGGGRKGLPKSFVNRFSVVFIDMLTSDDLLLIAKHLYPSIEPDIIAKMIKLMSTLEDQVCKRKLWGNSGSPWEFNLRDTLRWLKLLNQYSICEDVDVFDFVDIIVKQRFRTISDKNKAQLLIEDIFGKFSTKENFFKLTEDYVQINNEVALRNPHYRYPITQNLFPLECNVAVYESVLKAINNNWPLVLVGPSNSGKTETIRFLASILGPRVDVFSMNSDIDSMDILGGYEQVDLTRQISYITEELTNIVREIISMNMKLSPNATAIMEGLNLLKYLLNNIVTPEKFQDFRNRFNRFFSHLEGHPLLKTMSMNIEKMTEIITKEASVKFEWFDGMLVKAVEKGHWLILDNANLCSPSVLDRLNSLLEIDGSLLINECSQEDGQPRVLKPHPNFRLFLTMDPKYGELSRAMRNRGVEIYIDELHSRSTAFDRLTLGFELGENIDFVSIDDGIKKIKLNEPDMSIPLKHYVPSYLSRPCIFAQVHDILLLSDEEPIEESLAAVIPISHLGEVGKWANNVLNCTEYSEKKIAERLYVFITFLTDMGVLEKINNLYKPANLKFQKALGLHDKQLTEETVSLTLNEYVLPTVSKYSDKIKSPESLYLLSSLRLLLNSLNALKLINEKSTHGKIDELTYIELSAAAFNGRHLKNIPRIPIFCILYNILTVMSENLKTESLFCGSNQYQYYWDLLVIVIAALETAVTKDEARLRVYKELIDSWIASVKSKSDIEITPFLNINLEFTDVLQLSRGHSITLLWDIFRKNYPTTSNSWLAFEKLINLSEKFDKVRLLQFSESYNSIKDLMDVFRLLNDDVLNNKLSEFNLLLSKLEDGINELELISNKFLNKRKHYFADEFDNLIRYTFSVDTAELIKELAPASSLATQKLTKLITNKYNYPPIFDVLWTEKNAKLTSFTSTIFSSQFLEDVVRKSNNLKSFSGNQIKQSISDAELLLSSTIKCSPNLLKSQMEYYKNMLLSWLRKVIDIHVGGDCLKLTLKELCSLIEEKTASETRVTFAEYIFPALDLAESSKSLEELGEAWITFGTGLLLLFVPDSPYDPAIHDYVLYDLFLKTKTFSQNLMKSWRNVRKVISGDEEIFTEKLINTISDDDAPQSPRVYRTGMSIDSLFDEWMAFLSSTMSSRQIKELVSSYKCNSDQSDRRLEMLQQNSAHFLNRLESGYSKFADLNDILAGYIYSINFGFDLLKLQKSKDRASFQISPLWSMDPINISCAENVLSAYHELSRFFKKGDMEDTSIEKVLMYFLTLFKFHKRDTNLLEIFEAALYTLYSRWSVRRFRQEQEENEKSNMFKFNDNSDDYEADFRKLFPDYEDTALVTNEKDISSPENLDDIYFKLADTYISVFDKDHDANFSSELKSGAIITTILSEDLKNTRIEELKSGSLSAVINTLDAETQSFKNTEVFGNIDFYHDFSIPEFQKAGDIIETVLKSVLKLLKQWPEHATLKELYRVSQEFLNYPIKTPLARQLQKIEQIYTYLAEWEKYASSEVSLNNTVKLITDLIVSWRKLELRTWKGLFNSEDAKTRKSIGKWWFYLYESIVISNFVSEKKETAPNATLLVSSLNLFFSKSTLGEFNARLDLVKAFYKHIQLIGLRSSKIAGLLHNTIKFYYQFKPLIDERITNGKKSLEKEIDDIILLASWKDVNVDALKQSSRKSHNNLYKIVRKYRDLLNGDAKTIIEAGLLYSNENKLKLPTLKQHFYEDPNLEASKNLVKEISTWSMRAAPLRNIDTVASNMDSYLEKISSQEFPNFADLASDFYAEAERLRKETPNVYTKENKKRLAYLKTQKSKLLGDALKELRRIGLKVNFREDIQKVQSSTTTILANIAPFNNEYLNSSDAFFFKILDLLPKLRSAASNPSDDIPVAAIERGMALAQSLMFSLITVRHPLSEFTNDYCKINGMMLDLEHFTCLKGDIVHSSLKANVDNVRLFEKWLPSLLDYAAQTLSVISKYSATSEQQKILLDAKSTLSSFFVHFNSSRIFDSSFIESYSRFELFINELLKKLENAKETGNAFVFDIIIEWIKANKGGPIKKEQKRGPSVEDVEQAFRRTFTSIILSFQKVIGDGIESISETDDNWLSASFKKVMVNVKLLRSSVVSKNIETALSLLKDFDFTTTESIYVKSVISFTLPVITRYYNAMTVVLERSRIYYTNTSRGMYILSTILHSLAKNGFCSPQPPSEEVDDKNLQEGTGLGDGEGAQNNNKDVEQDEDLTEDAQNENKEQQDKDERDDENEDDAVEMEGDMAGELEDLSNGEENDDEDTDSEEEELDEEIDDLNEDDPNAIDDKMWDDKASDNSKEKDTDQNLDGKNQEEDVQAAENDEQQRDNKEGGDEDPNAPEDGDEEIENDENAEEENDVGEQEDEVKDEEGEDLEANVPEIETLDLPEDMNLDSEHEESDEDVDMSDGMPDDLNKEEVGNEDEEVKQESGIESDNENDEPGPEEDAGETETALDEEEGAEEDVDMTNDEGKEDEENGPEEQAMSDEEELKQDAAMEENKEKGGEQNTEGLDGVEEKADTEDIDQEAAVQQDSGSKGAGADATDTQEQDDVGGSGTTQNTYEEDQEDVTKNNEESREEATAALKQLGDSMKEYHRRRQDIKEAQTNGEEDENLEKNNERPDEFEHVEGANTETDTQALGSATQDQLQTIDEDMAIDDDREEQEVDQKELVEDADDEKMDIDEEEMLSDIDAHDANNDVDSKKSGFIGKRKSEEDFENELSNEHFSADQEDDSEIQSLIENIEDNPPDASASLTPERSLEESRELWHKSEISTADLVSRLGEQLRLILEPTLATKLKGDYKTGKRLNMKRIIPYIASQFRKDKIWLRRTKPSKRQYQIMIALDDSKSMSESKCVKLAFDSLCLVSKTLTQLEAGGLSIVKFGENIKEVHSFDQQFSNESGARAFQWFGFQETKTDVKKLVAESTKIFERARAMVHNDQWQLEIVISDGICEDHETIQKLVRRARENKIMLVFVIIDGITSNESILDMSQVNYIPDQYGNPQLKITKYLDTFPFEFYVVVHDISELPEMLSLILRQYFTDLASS
row,effect of a mutation on the interaction,Variant
1,decreasing interaction,MSTLIPPPSKKQKKEAQLPREVAIIPKDLPNVSIKFQALDTGDNVGGALRVPGAISEKQLEELLNQLNGTSDDPVPYTFSCTIQGKKASDPVKTIDITDNLYSSLIKPGYNSTDDQITLLYTPRAVFKVKPVTRSSSAIAGHGSTILCSAFAPHTSSRMVTGAGDNTARIWDCDTQTPMHTLKGHYNWVLCVSWSPDGEVIATGSMDNTIRLWDPKSGQCLGDALRGHSKWITSLSWEPIHLVKPGSKPRLASSSKDGTIKIWDTVSRVCQYTMSGHTNSVSCVKWGGQGLLYSGSHDRTVRVWDINSQGRCINILKSHAHWVNHLSLSTDYALRIGAFDHTGKKPSTPEEAQKKALENYEKICKKNGNSEEMMVTASDDYTMFLWNPLKSTKPIARMTGHQKLVNHVAFSPDGRYIVSASFDNSIKLWDGRDGKFISTFRGHVASVYQVAWSSDCRLLVSCSKDTTLKVWDVRTRKLSVDLPGHKDEVYTVDWSVDGKRVCSGGKDKMVRLWTH [E114D]
2,decreasing interaction,MSTLIPPPSKKQKKEAQLPREVAIIPKDLPNVSIKFQALDTGDNVGGALRVPGAISEKQLEELLNQLNGTSDDPVPYTFSCTIQGKKASDPVKTIDITDNLYSSLIKPGYNSTADQITLLYTPRAVFKVKPVTRSSSAIAGHGSTILCSAFAPHTSSRMVTGAGDNTARIWDCDTQTPMHTLKGHYNWVLCVSWSPDGEVIATGSMDNTIRLWDPKSGQCLGDALRGHSKWITSLSWEPIHLVKPGSKPRLASSSKDGTIKIWDTVSRVCQYTMSGHTNSVSCVKWGGQGLLYSGSHDRTVRVWDINSQGRCINILKSHAHWVNHLSLSTDYALRIGAFDHTGKKPSTPEEAQKKALENYEKICKKNGNSEEMMVTASDDYTMFLWNPLKSTKPIARMTGHQKLVNHVAFSPDGRYIVSASFDNSIKLWDGRDGKFISTFRGHVASVYQVAWSSDCRLLVSCSKDTTLKVWDVRTRKLSVDLPGHKDEVYTVDWSVDGKRVCSGGKDKMVRLWTH [E114A]
